{"source": "paper PMC3303126", "about": "(Nature structural & molecular biology, 2012)", "binders": {"B1": {"name": "Sac3 residues 250-563 (Sac3-M), as crystallised (domain or fragment)", "chain": "PLPSDVRPPHILVKTLDYIVDNLLTTLPESEGFLWDRMRSIRQDFTYQNYSGPEAVDCNERIVRIHLLILHIMVKSNVEFSLQQELEQLHKSLITLSEIYDDVRSSGGTCPNEAEFRAYALLSKIRDPQYDENIQRLPKHIFQDKLVQMALCFRRVISNSAYTERGFVKTENCLNFYARFFQLMQSPSLPLLMGFFLQMHLTDIRFYALRALSHTLNKKHKPIPFIYLENMLLFNNRQEIIEFCNYYSIEIINGDAADLKTLQHYSHKLSETQPLKKTYLTCLERRLQKTTYKGLINGGEDNLASSVYVKDPKK"}, "B2": {"name": "polyA25 RNA (ssRNA)", "RNA": "AAAAAAAAAAAAAAAAAAAAAAAAA"}, "B3": {"name": "Sem1 (full length, bacterially expressed) (natural protein)", "chain": "MSTDVAAAQAQSKIDLTKKKNEEINKKSLEEDDEFEDFPIDTWANGETIKSNAVTQTNIWEENWDDVEVDDDFTNELKAELDRYKRENQ"}, "B4": {"name": "polyU25 RNA (ssRNA)", "RNA": "UUUUUUUUUUUUUUUUUUUUUUUUU"}}, "key": {"[1]": {"target": "T1, His-Thp1 (full-length Thp1, coexpressed with Sem1) (S. cerevisiae, UniProt Q08231 1-455)", "T1 sequence": "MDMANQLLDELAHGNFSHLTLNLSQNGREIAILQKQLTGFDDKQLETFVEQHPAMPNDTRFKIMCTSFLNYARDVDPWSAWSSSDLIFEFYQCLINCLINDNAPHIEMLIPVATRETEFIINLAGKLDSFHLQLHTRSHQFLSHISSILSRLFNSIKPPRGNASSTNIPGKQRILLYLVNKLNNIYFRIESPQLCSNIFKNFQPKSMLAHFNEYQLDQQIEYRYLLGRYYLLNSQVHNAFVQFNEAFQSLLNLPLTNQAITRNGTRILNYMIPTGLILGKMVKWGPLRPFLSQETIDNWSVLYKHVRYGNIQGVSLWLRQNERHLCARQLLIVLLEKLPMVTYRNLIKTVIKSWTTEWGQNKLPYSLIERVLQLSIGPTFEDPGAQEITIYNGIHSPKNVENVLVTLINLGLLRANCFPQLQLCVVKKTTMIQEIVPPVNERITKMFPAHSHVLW", "test": "crystal structure"}, "[2]": {"target": "T2, Sac3-M (Sac3 250-563);Thp1;Sem1 (Saccharomyces cerevisiae;Saccharomyces …, UniProt P46674;Q08231;O94742 250-563;1-455;1-89, ||)", "T2 sequence 1": "B1 chain", "T2 sequence 2": "T1 sequence", "T2 sequence 3": "B3 chain", "test": "EMSA"}, "[3]": {"target": "T3, ProtA-Sac3 250-563;Thp1;Sem1 (Saccharomyces cerevisiae;Saccharomyces …, UniProt P46674;Q08231;O94742 250-563;1-455;1-89, ||)", "T3 sequence 1": "B1 chain", "T3 sequence 2": "T1 sequence", "T3 sequence 3": "B3 chain", "test": "EMSA"}, "[4]": {"target": "T1, His-Thp1 (full-length Thp1, coexpressed …)", "test": "pull-down"}, "[5]": {"target": "T2, Sac3-M (Sac3 250-563);Thp1;Sem1", "test": "EMSA", "remark": "listed apart in the source"}}, "data": [{"binder": "B1", "values": [{"measurement": "binding result", "setting": "[1]", "result": "binds"}]}, {"binder": "B2", "values": [{"measurement": "binding result", "setting": "[2]", "result": "binds"}, {"measurement": "binding result", "setting": "[3]", "result": "binds"}]}, {"binder": "B3", "values": [{"measurement": "binding result", "setting": "[4]", "result": "binds"}]}, {"binder": "B4", "values": [{"measurement": "Kd", "setting": "[5]", "result": 175, "unit": "nM"}]}]}
